The values below are quoted from earlier work in patent US20220089455A1, “METHOD FOR PRODUCING NANOPARTICLE HAVING METAL PARTICLE WHICH CONTAINS IRON OXIDE TO WHICH ONE OR MORE HYDROPHILIC LIGANDS ARE COORDINATION BONDED” (ASTELLAS PHARMA INC., priority 2018, published 2022).

The conditions of this data set: standard used for SEC comparison.

B1: ovalbumin (protein, UniProt P01012 2-386, looked up)
Ovalbumin: GSIGAASMEFCFDVFKELKVHHANENIFYCPIAIMSALAMVYLGAKDSTRTQINKVVRFDKLPGFGDSIEAQCGTSVNVHSSLRDILNQITKPNDVYSFSLASRLYAEERYPILPEYLQCVKELYRGGLEPINFQTAADQARELINSWVESQTNGIIRNVLQPSSVDSQTAMVLVNAIVFKGLWEKAFKDEDTQAMPFRVTEQESKPVQMMYQIGLFRVASMASEKMKILELPFASGTMSMLVLLPDEVSGLEQLESIINFEKLTEWTSSNVMEERKIKVYLPRMKMEEKYNLTSVLMAMGITDVFSSSANLSGISSAESLKISQAVHAAHAEINEAGREVVGSAEAGVDAASVSEEFRADHPFLFCIKHIATNAVLFFGRCVSP
Turning to B1, the “particle diameter of the standard” value is on record as 6.1 nm.
